Results published in patent US20140322233A1.

Tests used:
[1] = biological target: T1, human guanylyl cyclase C (GCC), full length (human), P25092; experiment: whole cell binding of radiolabeled ST-toxin, HT-29-GCC#2/#5 cells
[2] = biological target: T1, human guanylyl cyclase C (GCC), full …; experiment: whole cell binding of radiolabeled ST-toxin, T84 cells (endogenous GCC)
[3] = biological target: human GCC, full length with myc tag (293-GCC#2 cells) (human), P25092; experiment: whole cell binding of radiolabeled ST-toxin, 293-GCC cells
Sequence of human GCC, full length with myc tag (293-GCC#2 cells) (human), P25092 (P25092 24-1073): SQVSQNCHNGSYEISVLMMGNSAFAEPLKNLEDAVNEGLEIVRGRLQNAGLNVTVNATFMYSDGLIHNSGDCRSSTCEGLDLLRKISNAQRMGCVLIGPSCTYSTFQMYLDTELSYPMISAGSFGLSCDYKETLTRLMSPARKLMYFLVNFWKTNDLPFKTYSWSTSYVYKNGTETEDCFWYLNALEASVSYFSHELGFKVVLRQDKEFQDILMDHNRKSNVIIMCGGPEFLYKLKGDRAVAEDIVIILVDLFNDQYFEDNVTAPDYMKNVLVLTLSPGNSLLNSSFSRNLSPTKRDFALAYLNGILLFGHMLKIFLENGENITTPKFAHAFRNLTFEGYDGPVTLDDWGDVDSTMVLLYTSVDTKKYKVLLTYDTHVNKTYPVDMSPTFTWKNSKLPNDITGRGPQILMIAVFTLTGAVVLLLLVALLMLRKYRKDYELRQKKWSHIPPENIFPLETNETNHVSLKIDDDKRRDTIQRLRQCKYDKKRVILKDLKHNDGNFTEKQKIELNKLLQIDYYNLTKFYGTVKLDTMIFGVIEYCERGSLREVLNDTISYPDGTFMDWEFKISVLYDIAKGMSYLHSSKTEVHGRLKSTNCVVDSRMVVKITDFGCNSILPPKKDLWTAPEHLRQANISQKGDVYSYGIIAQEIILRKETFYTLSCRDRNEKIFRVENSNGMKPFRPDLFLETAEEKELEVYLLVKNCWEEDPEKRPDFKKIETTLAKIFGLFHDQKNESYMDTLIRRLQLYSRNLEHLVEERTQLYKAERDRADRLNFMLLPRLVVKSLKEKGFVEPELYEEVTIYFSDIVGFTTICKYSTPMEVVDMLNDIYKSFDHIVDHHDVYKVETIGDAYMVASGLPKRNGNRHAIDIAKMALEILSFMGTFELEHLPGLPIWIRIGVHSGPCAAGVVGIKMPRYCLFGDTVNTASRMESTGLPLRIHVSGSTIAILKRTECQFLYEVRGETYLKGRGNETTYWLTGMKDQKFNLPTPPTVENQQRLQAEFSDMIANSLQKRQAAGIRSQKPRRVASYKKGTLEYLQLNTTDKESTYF

T1 sequence (P25092 24-1073 limits assumed): as the sequence (P25092 24-1073) above

## NTFYCCELCCNPACAGCY (modifications not checked) [heat-stable enterotoxin (ST) peptide]
[1]
  Whole cell binding assay (receptor/cell) (receptor/cell): 100000
[2]
  Whole cell binding assay (receptor/cell) (receptor/cell): 300000
[3]
  Whole cell binding assay (receptor/cell) (receptor/cell): 600000
